This is an account of results in patent US20250304927A1, “PRO-PEPTIDE VARIANTS FOR MODULATING ACTIVITY OF TRANSGLUTAMINASES” (CURIE CO. INC., priority 2022, published 2025).

In test [1] the target is T1, thermostable variant of Streptomyces mobaraensis transglutaminase (Streptomyces mobaraensis, UniProt P81453 79-407).
T1 sequence: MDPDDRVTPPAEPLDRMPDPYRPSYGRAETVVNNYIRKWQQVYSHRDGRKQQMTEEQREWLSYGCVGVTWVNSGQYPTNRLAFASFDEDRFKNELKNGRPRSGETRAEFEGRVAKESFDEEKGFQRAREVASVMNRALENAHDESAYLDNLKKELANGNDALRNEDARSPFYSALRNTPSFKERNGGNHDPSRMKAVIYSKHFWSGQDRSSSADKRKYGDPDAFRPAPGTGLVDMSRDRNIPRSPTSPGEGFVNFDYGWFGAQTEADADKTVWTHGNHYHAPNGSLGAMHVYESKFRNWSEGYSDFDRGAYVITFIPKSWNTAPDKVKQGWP
Briefly: cell-based or functional assay.

Test [2] addresses T1, thermostable variant of Streptomyces …. Description: cell-based or functional assay. This is another data set of the same source.

B1: pro-peptide variant E7S (peptide)
peptide: MDNGAGSETKSYAETYRLTADDVANINALNESAPAASSAGPSFRAP
Turning to B1, the “Improvement in binding affinity of inhibitory peptide relative to WT” value in test [1] is greater than 1.2 fold. Moreover, in test [2], the “Improvement in pH responsiveness of inhibitory peptide relative to WT” value is greater than 5 fold.

B2: pro-peptide variant T9K (peptide)
peptide: MDNGAGEEKKSYAETYRLTADDVANINALNESAPAASSAGPSFRAP
With B2, the “Improvement in binding affinity of inhibitory peptide relative to WT” value in test [1] was greater than 1.2 fold. Further, the “Improvement in pH responsiveness of inhibitory peptide relative to WT” value in test [2] was greater than 1.2 fold.

B3: pro-peptide variant E14S (peptide)
peptide: MDNGAGEETKSYASTYRLTADDVANINALNESAPAASSAGPSFRAP
Take B3: in test [1], the “Improvement in binding affinity of inhibitory peptide relative to WT” value is greater than 1.2 fold. Further, the “Improvement in pH responsiveness of inhibitory peptide relative to WT” value in test [2] is greater than 5 fold.

B4: pro-peptide variant E8T (peptide)
peptide: MDNGAGETTKSYAETYRLTADDVANINALNESAPAASSAGPSFRAP
Turning to B4, in test [1], the “Improvement in binding affinity of inhibitory peptide relative to WT” value is greater than 1.2 fold. The “Improvement in pH responsiveness of inhibitory peptide relative to WT” value in test [2] is greater than 1.2 fold.

B5: pro-peptide variant E7T (peptide)
peptide: MDNGAGTETKSYAETYRLTADDVANINALNESAPAASSAGPSFRAP
Take B5: the “Improvement in binding affinity of inhibitory peptide relative to WT” value in test [1] was greater than 1.2 fold. Further, the “Improvement in pH responsiveness of inhibitory peptide relative to WT” value in test [2] is greater than 1.2 fold.

B6: pro-peptide variant E8R (peptide)
peptide: MDNGAGERTKSYAETYRLTADDVANINALNESAPAASSAGPSFRAP
As to B6, the “Improvement in binding affinity of inhibitory peptide relative to WT” value in test [1] was greater than 1.2 fold. Besides, the “Improvement in pH responsiveness of inhibitory peptide relative to WT” value in test [2] is greater than 1.2 fold.

B7: pro-peptide variant T9V (peptide)
peptide: MDNGAGEEVKSYAETYRLTADDVANINALNESAPAASSAGPSFRAP
Take B7: the “Improvement in binding affinity of inhibitory peptide relative to WT” value in test [1] was greater than 1.2 fold. Also, in test [2], the “Improvement in pH responsiveness of inhibitory peptide relative to WT” value is greater than 1.2 fold.

B8: pro-peptide variant T9G (peptide)
peptide: MDNGAGEEGKSYAETYRLTADDVANINALNESAPAASSAGPSFRAP
B8: in test [1], the “Improvement in binding affinity of inhibitory peptide relative to WT” value was greater than 1.2 fold. Further, in test [2], the “Improvement in pH responsiveness of inhibitory peptide relative to WT” value is greater than 1.2 fold.

B9: pro-peptide variant E8Q (peptide)
peptide: MDNGAGEQTKSYAETYRLTADDVANINALNESAPAASSAGPSFRAP
On to B9, for which the “Improvement in binding affinity of inhibitory peptide relative to WT” value in test [1] is greater than 1.2 fold. Moreover, the “Improvement in pH responsiveness of inhibitory peptide relative to WT” value in test [2] was greater than 5 fold.

B10: pro-peptide variant D22A (peptide)
peptide: MDNGAGEETKSYAETYRLTADAVANINALNESAPAASSAGPSFRAP
Turning to B10, the “Improvement in binding affinity of inhibitory peptide relative to WT” value in test [1] was greater than 1.2 fold. Besides, in test [2], the “Improvement in pH responsiveness of inhibitory peptide relative to WT” value was greater than 1.2 fold.

B11: pro-peptide variant E8N (peptide)
peptide: MDNGAGENTKSYAETYRLTADDVANINALNESAPAASSAGPSFRAP
For B11, the “Improvement in binding affinity of inhibitory peptide relative to WT” value in test [1] is greater than 1.2 fold. Also, the “Improvement in pH responsiveness of inhibitory peptide relative to WT” value in test [2] is greater than 1.2 fold.

B12: pro-peptide variant E7V (peptide)
peptide: MDNGAGVETKSYAETYRLTADDVANINALNESAPAASSAGPSFRAP
Regarding B12, in test [1], the “Improvement in binding affinity of inhibitory peptide relative to WT” value is greater than 1.2 fold. Also, the “Improvement in pH responsiveness of inhibitory peptide relative to WT” value in test [2] was greater than 5 fold.

B13: pro-peptide variant T15V (peptide)
peptide: MDNGAGEETKSYAEVYRLTADDVANINALNESAPAASSAGPSFRAP
As to B13, in test [1], the “Improvement in binding affinity of inhibitory peptide relative to WT” value was greater than 1.2 fold. Moreover, the “Improvement in pH responsiveness of inhibitory peptide relative to WT” value in test [2] is greater than 1.2 fold.

B14: pro-peptide variant D2S (peptide)
peptide: MSNGAGEETKSYAETYRLTADDVANINALNESAPAASSAGPSFRAP
Take B14: the “Improvement in binding affinity of inhibitory peptide relative to WT” value in test [1] was greater than 1.2 fold. In addition, in test [2], the “Improvement in pH responsiveness of inhibitory peptide relative to WT” value is greater than 1.2 fold.

B15: pro-peptide variant E8L (peptide)
peptide: MDNGAGELTKSYAETYRLTADDVANINALNESAPAASSAGPSFRAP
As to B15, the “Improvement in binding affinity of inhibitory peptide relative to WT” value in test [1] is greater than 1.2 fold. Also, the “Improvement in pH responsiveness of inhibitory peptide relative to WT” value in test [2] is greater than 1.2 fold.

B16: pro-peptide variant T9R (peptide)
peptide: MDNGAGEERKSYAETYRLTADDVANINALNESAPAASSAGPSFRAP
As for B16, the “Improvement in binding affinity of inhibitory peptide relative to WT” value in test [1] was greater than 1.2 fold. In test [2], the “Improvement in pH responsiveness of inhibitory peptide relative to WT” value was greater than 1.2 fold.

B17: pro-peptide variant E8C (peptide)
peptide: MDNGAGECTKSYAETYRLTADDVANINALNESAPAASSAGPSFRAP
Regarding B17, the “Improvement in binding affinity of inhibitory peptide relative to WT” value in test [1] was greater than 1.2 fold. The “Improvement in pH responsiveness of inhibitory peptide relative to WT” value in test [2] is greater than 1.2 fold.

B18: pro-peptide variant L18I (peptide)
peptide: MDNGAGEETKSYAETYRITADDVANINALNESAPAASSAGPSFRAP
For the molecule B18, the “Improvement in binding affinity of inhibitory peptide relative to WT” value in test [1] is greater than 1.2 fold. Also, the “Improvement in pH responsiveness of inhibitory peptide relative to WT” value in test [2] is greater than 1.2 fold.

B19: pro-peptide variant T9L (peptide)
peptide: MDNGAGEELKSYAETYRLTADDVANINALNESAPAASSAGPSFRAP
On to B19, for which the “Improvement in binding affinity of inhibitory peptide relative to WT” value in test [1] is greater than 1.2 fold. In addition, the “Improvement in pH responsiveness of inhibitory peptide relative to WT” value in test [2] is greater than 1.2 fold.

B20: pro-peptide variant T15D (peptide)
peptide: MDNGAGEETKSYAEDYRLTADDVANINALNESAPAASSAGPSFRAP
With B20, the “Improvement in binding affinity of inhibitory peptide relative to WT” value in test [1] was greater than 1.2 fold. In test [2], the “Improvement in pH responsiveness of inhibitory peptide relative to WT” value was greater than 1.2 fold.

B21: pro-peptide variant D21C (peptide)
peptide: MDNGAGEETKSYAETYRLTACDVANINALNESAPAASSAGPSFRAP
In the case of B21, the “Improvement in binding affinity of inhibitory peptide relative to WT” value in test [1] is greater than 1.2 fold. Besides, the “Improvement in pH responsiveness of inhibitory peptide relative to WT” value in test [2] is greater than 1.2 fold.

B22: pro-peptide variant D21V (peptide)
peptide: MDNGAGEETKSYAETYRLTAVDVANINALNESAPAASSAGPSFRAP
For the molecule B22, in test [1], the “Improvement in binding affinity of inhibitory peptide relative to WT” value was greater than 1.2 fold. The “Improvement in pH responsiveness of inhibitory peptide relative to WT” value in test [2] was greater than 1.2 fold.

B23: pro-peptide variant T9H (peptide)
peptide: MDNGAGEEHKSYAETYRLTADDVANINALNESAPAASSAGPSFRAP
On to B23, for which the “Improvement in binding affinity of inhibitory peptide relative to WT” value in test [1] is greater than 1.2 fold. For the same molecule, the “Improvement in pH responsiveness of inhibitory peptide relative to WT” value in test [2] is greater than 1.2 fold.

B24: pro-peptide variant T9W (peptide)
peptide: MDNGAGEEWKSYAETYRLTADDVANINALNESAPAASSAGPSFRAP
On to B24, for which the “Improvement in binding affinity of inhibitory peptide relative to WT” value in test [1] is greater than 1.2 fold. For the same molecule, the “Improvement in pH responsiveness of inhibitory peptide relative to WT” value in test [2] is greater than 1.2 fold.

B25: pro-peptide variant D21F (peptide)
peptide: MDNGAGEETKSYAETYRLTAFDVANINALNESAPAASSAGPSFRAP
With B25, the “Improvement in binding affinity of inhibitory peptide relative to WT” value in test [1] is greater than 1.2 fold. For the same molecule, the “Improvement in pH responsiveness of inhibitory peptide relative to WT” value in test [2] is greater than 1.2 fold.

B26: pro-peptide variant D21S (peptide)
peptide: MDNGAGEETKSYAETYRLTASDVANINALNESAPAASSAGPSFRAP
For the molecule B26, the “Improvement in binding affinity of inhibitory peptide relative to WT” value in test [1] is greater than 1.2 fold. In test [2], the “Improvement in pH responsiveness of inhibitory peptide relative to WT” value was greater than 1.2 fold.

B27: pro-peptide variant T9A (peptide)
peptide: MDNGAGEEAKSYAETYRLTADDVANINALNESAPAASSAGPSFRAP
B27: in test [1], the “Improvement in binding affinity of inhibitory peptide relative to WT” value is greater than 1.2 fold. Besides, in test [2], the “Improvement in pH responsiveness of inhibitory peptide relative to WT” value was greater than 1.2 fold.

B28: pro-peptide variant E7L (peptide)
peptide: MDNGAGLETKSYAETYRLTADDVANINALNESAPAASSAGPSFRAP
Regarding B28, in test [1], the “Improvement in binding affinity of inhibitory peptide relative to WT” value is greater than 1.2 fold. Further, the “Improvement in pH responsiveness of inhibitory peptide relative to WT” value in test [2] is greater than 1.2 fold.

B29: pro-peptide variant T9Y (peptide)
peptide: MDNGAGEEYKSYAETYRLTADDVANINALNESAPAASSAGPSFRAP
As for B29, the “Improvement in binding affinity of inhibitory peptide relative to WT” value in test [1] is greater than 1.2 fold. Besides, the “Improvement in pH responsiveness of inhibitory peptide relative to WT” value in test [2] is greater than 1.2 fold.

B30: pro-peptide variant E7C (peptide)
peptide: MDNGAGCETKSYAETYRLTADDVANINALNESAPAASSAGPSFRAP
In the case of B30, the “Improvement in binding affinity of inhibitory peptide relative to WT” value in test [1] is greater than 1.2 fold. In test [2], the “Improvement in pH responsiveness of inhibitory peptide relative to WT” value was greater than 1.2 fold.

B31: pro-peptide variant D21M (peptide)
peptide: MDNGAGEETKSYAETYRLTAMDVANINALNESAPAASSAGPSFRAP
On to B31, for which the “Improvement in binding affinity of inhibitory peptide relative to WT” value in test [1] is greater than 1.2 fold. Also, the “Improvement in pH responsiveness of inhibitory peptide relative to WT” value in test [2] is greater than 5 fold.

B32: pro-peptide variant E14Q (peptide)
peptide: MDNGAGEETKSYAQTYRLTADDVANINALNESAPAASSAGPSFRAP
On to B32, for which the “Improvement in binding affinity of inhibitory peptide relative to WT” value in test [1] was greater than 1.2 fold. The “Improvement in pH responsiveness of inhibitory peptide relative to WT” value in test [2] is greater than 1.2 fold.

B33: pro-peptide variant D2T (peptide)
peptide: MTNGAGEETKSYAETYRLTADDVANINALNESAPAASSAGPSFRAP
Take B33: the “Improvement in binding affinity of inhibitory peptide relative to WT” value in test [1] is greater than 1.2 fold. In test [2], the “Improvement in pH responsiveness of inhibitory peptide relative to WT” value was greater than 1.2 fold.
